According to patent publication US20180348220:
pKd: −log10 of the molar value.

What was measured:
Assay in all cases: flow
Conditions in all cases: whole cells, 4C
[1] = test system: unidentified cell-surface target of MCF7 cells (Homo sapiens)
[2] = test system: unidentified cell-surface target of MDA-MB-231 cells (Homo sapiens)
[3] = test system: unidentified cell-surface target of T-47D cells (Homo sapiens)

GGCCCGGCTGGCATGTANTCATGCCTCCTGGNCTAAGGTTTCTAAAGGGCCCGCGTAGCG [08B-MCF7mh]
pKd ([1]; n = Ds, ±0.1 (printed 01)): 8.60

GGCCCGGCTGGCATGTANTCATGCCTCCTGGNCTAAGGTTTCTAAAGGGCC [08B-MCF7 (51DsDs)]
pKd ([1]; n = Ds at 18 and 32, ±0.3): 8.49

CTCTAGTCNGTCGAACTGTNATGAGCGTGCTAGGGGG [14A-MCF7 (37DsDs)]
pKd ([1]; n = Ds, ±0.1, Mg2+): 8.68

GGCGGTCNGTCGAACTGTNATGAGCGTGCCGCCCGCGTAGCG [14A-MCF7mh]
pKd ([1]; n = Ds, ±0.2, printed 14A-MCF7rmh): 8.68

CCCTCTTAAGTTTATAGNTGTCTTTTGGTNCCTAGGGCGTTTTAAAGGG [23-MB231b]
pKd ([2]; n = Ds, ±5.6): 7.63

CGGCGGTCNGTCGAACTGTNATGAGCGTGCCGCCGCGCGTAGCG [14A-MCF7mh (44DsDs)]
pKd ([1]; n = Ds, ±0.2): 8.72

CCCTCTTAAGTTTATAGNTGTCTTTTGGTNCCTAGGGCGTTTTAAAGGGCGCGTAGCG [23-MB231bmh]
pKd ([2]; n = Ds, ±0.9): 8.60

CCGCGCAGCCTGGGNTCTCTTTTAGTCNAGTTCAATCGCGCGGCGCGTAGCG [07-MB231mh]
pKd ([2]; n = Ds, ±0.3): 8.70

GCGGCGAAGATCACNACTAGGGGNCCTCGCCGC [03-T47D (DsDs)]
pKd ([3]; n = Ds at 15 and 24, ±6.7): 7.04

GCGGTCNGTCGAACTGTNATGAGCGTGCCGCCGCGTAGCG [14A-MCF7mh (40DsDs)]
pKd ([1]; n = Ds, ±0.2): 8.66

CGGTCNGTCGAACTGTNATGAGCGTGCCGCGCGTAGCG [14A-MCF7mh (38DsDs)]
pKd ([1]; n = Ds, ±0.02): 8.59

GCGGCGAAGATCACNACTAGGGGNCCTCGCCGCCGCGTAGCG [03-T47Dmh]
pKd ([3]; n = Ds, ±3.0): 7.41

GGCCCGGCTGGCGAAGCCTCCTGGNCTAAGGTTTCTAAAGGGCCCGCGTAGCG [08B-MCF7mh2]
pKd ([1]; n = Ds, ±0.1): 8.64

CCGCGCAGCCTGGGNTCTCTTTTAGTCNAGTTCAATCGCGCGG [07-MB231 (DsDs)]
pKd ([2]; n = Ds at 15 and 28, ±0.5): 8.66

GGCGCCAGGGGTGTTTGTGCCGTGAGNTGTGGCGCC [05-MB231GC]
pKd ([2]; n = Ds, ±0.2): 8.66

GGCGCCAGGGGTGTTTGTGCCGTGAGNTGTGGCGCCCGCGTAGCG [05-MB231GCmh]
pKd ([2]; n = Ds, ±0.1): 8.80
